Experimental data as given in patent US20220290101A1.

Biological target: L1 (DV1-GV4) soluble heterodimeric γδ TCR antigen, leucine zipper (LZ) format (human)
Test: DELFIA affinity ranking with 100 nM biotinylated L1

L1 (DV1-GV4) soluble heterodimeric γδ TCR antigen, leucine zipper (LZ) format (human), sequence (main, as listed by the source): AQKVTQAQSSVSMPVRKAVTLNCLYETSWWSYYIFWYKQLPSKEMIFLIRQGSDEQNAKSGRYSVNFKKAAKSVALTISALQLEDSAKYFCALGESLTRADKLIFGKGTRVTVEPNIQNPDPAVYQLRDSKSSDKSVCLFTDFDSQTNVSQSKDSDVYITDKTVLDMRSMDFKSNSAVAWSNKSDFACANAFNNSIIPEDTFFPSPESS

Binder	100 nM L1 (DELFIA signal) (fluorescence units)
1141_P01_E01 (scFv) (scFv) scFv: QVQLVQSGAEVKKPGESLKISCKGSGYSFTSYWIGWVRQMPGKGLEWMGIIYPGDSDTRYSPSFQGQVTISADKSISTAYLQWSSLKASDTAMYYCARHQVDTRTADYWGQGTLVTVSSGGGGSGGGGSGGGASQSALTQPASVSGSPGQSVTISCTGTRSDVGGYNYVSWYQHHPGKAPKLMIYEVSNRPSGVSNRFSGSKSGNTASLTISGLQAEDEADYYCSSYTSTSTLVFGGGTKLTVL	137000
1245_P02_G04 (scFv) (scFv) scFv: QVQLQQSGPGLVKPSQTLSLTCAISGDSVSSKSAAWNWIRQSPSRGLEWLGRTYYRSKWSTDYAASVKSRITINPDTSKNQLSLQLNSVTPEDTAVYYCARTWSGYVDVWGQGTLVTVSSGGGGSGGGGSGGGASDIQMTQSPPALSASVGDRVTITCRASQDINDWLAWYQHKPGKAPKLLIYDASSLESGVPSRFSGSGSGTEFTLTISSLQPDDFATYYCQQSYSTPQVTFGQGTRLEIK	5900
1251_P02_G10 (scFv) (scFv) scFv: EVQLVESGGGLVQPGGSLRLSCAASGFTFSDYYMSWIRQAPGKGLEWVSYISSSGSTIYYADSVKGRFTISRDNAKNSLYLQMNSLRAEDTAVYYCARHSWNDAFDIWGRGTLVTVSSGGGGSGGGGSGGGASDIQMTQSPSSLSASVGDRVTITCRASQSISSHLNWYQQKPGKAPKLLIYAASSLQSGVPSRFSASGSGTDFTLTISSLQPEDFATYYCQQSYSTLLTFGGGTKVEIK	17100
1245_P01_E07 (scFv) (scFv) scFv: QVQLVESGGGLVKPGGSLRLSCAASGFTFSDYYMSWIRQAPGKGLEWVSYISSSGSTIYYADSVKGRFTISRDNAKNSLYLQMNSLRAEDTAVYYCARVDYADAFDIWGQGTLVTVSSGGGGSGGGGSGGGASDIQMTQSPSSLSASVGDRVTIACRAGQSIGTYLNWYQQKPGKAPKLLIYVASSLQSGVPSRFSGSGSGTEFTLTISSLQPEDFATYYCQQSYSTLLTFGRGTKVEIK	163000
1245_P01_G09 (scFv) (scFv) scFv: QVQLQQSGPGLVKPSQTLSLTCAISGDSVSSNSAAWNWIRQSPSRGLEWLGRTYYGSKWYNEYALSVKSRIIINPDTSKNQFSLQLNSVTPEDTAVYYCARDYYYSMDVWGQGTLVTVSSGGGGSGGGGSGGGASDIVMTQSPSTLSASIGDRVTITCRAGQSISTWLAWYQQKPGKAPKLLIYDASSLESGVPLRFSGSGSGTEFTLAISSLQPDDFATYYCQQSYSTPVTFGQGTKVEIK	18400
1252_P01_C08 (scFv) (scFv) scFv: EVQLLESGGGLVQPGRSLRLSCAASGFTVSSNYMSWVRQAPGKGLEWVSVIYSGGSTYYADSVKGRFTISRDNSKNTLYLQMNSLRAEDTAVYYCASPIELGAFDIWGQGTLVTVSSGGGGSGGGGSGGGASSYELTQPPSVSVAPGKTARITCGGNNIGSQSVHWYQQKPGQAPMLVIYYDSDRPSGIPERFSGSNSGNTATLTISRVEAGDEADYYCQVWDSSSDHVVFGGGTKLTVL	1980
1251_P02_C05 (scFv) (scFv) scFv: EVQLLESGGGLVQPGGSLRLSCAASGFTFSSYAMSWVRQAPGKGLEWVSAISGGGGTTYSSDSVKGRFTISRDNSKNTLYLQMNSLRAEDTAVYYCARDSGVAFDIWGQGTLVTVSSGGGGSGGGGSGGGASDIQMTQSPSFLSASVGDRVTITCRASQNIRTWLAWYQQKPGRAPKLLIYDASSLESGVPSRFSGSGSGTDFTLTISSLQPEDFATYYCQQFKRYPPTFGLGTKVEIK	65300
1139_P01_E04 (scFv) (scFv) scFv: QVQLQQSGPGLVKPSQTLSLTCAISGDSVSSNSAAWNWIRQSPSRGLEWLGRTYYRSKWYNDYAVSVRSRITINPDTSKNQFSLQLNSVTPEDTAVYYCARSWNDAFDIWGQGTTVTVSSGGGGSGGGGSGGGASDIVMTQSPSTLSASIGDRVTITCRAGQSISTWLAWYQQKPGKAPKLLIYDASSLESGVPLRFSGSGSGTDFTLTISSLQPEDFATYYCQQSYSTPLTFGGGTKVEIK	23800
1245_P02_F07 (scFv) (scFv) scFv: QVQLQQSGPGLVKPSQTLSLTCVISGDSVSSNSAAWNWIRQSPSRGLEWLGRTYYRSKWYNDYAVSVKSRITINPDTSKNQFSLQLNSVTPEDTAVYYCARDYYYSMDVWGQGTMVTVSSGGGGSGGGGSGGGASDIQMTQSPSTLSASVGDRVTITCRASQSISSWLAWYQQKPGKAPKLLIYDASSLESGVPLRFSGSGSGTEFTLTISSLQPDDFATYYCQQSHSHPPTFGPGTKVDIK	10400
